Results reported in patent publication US20230374534, “TRANSGENIC PLANT HAVING COLD RESISTANCE OVEREXPRESSING THIOREDOXIN TRX-H2 PROTEIN” (INDUSTRY-ACADEMIC COOPERATION FOUNDATION GYEONGSANG …, published 2023).

Assays:
[1] = target: CBF1 (Arabidopsis thaliana, UniProt P93835 SEQ:1-213); test: EMSA; 1 mM DTT (reducing), poly(dI-dC), 25 C, 30 min; binding redox-dependent; gel only in figure; conditions: tags: His (pET28a, E. coli); label: biotin
Protocol: FIGS. 3A to 3D are the results of EMSAs showing the redox-dependent binding of His-CBF1 to biotin-labeled COR15a promoter fragment (oligoprobe) in the presence of 1 mM DTT (FIG. 3A), 1 mM H₂O₂ (FIG. 3B), and a Trx system comprising 5 μM Trx-h2 (FIG. 3C) or Trx-h2(C/S) (FIG. 3D) with His-MBP as a control. FIG. 3E is the schematic representation of the COR15a promoter. P1 and P2 indicate the primer binding sites for qRT-PCR. […] (FIG. 3F) or 4° C. (FIG. 3G) for 6 h.
To carry out EMSAs, a biotin-labeled oligonucleotide probe (Table 1) was processed using a lightshift™ chemiluminescent EMSA Kit (Thermo Fisher Scientific, Rockford, IL, USA). Recombinant CBF1 (5 μg) was incubated with 40 fmol of biotin-labeled probe and 20 μl of reaction mixture containing 25 ng/μl Poly (dl-dC) binding buffer at 25° C. for 30 min. The reaction products were resolved on a 6% polyacrylamide gels. Probes bound to CBF1 were transferred to charged Hybond-N membrane and detected by western blotting with anti-biotin antibody (Abcam, Cambridge, MA, USA).

[2] = target: MBP (control) (UniProt P0AEX9 P0AEX9:27-396); test: EMSA; His-MBP used as negative control; gel only in figure

Sequence of CBF1 (P93835 whole entry, the tested form may be a part): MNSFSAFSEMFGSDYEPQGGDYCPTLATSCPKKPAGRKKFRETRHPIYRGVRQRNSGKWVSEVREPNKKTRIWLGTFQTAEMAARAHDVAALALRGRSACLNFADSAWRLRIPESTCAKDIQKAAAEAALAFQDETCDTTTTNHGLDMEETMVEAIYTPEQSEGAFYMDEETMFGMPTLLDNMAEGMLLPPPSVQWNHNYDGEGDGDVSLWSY

B1: COR15a promoter CRT/DRE probe (-275 to -253) (dsDNA)
DNA 1: ATTTCATGGCCGACCTGCTTTTT
DNA 2: AAAAAGCAGGTCGGCCATGAAAT
B1: binds [1]; no binding [2].
